Test results taken from the supplement of paper PMC10567573.

B1: RHOBTB3 (parent)
chain: KVVEAHKIVLCAVSHVFMLLFNVK

Variants of: B1
Test: protein stability index of a GFP-peptide fusion (GPS, HEK-293T) (PSI 1-6); higher = more stable
Conditions: c terminus: a fixed tail appended
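Note: lentivirally expressed fusions sorted by FACS into six bins by GFP to DsRed ratio, PSI derived from sequencing read proportions per bin multiplied by bin number.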

| Variant | protein stability index |
| --- | --- |
| KVVEAHKIVLCAVSHVFYLLFNVK [M18Y] | 2.5 |
| KVVEAHKIVLCAVSHVFKLLFNVK [M18K] | 1.55 |
| KMVEAHKIVLCAVSHVFMLLFNVK [V2M] | 2.9 |
| KKVEAHKIVLCAVSHVFMLLFNVK [V2K] | 1.62 |
| KGVEAHKIVLCAVSHVFMLLFNVK [V2G] | 2.64 |
| KFVEAHKIVLCAVSHVFMLLFNVK [V2F] | 2.5 |
| KVVEAHKIVLCHVSHVFMLLFNVK [A12H] | 2.83 |
| KVVEAHKIVLCCVSHVFMLLFNVK [A12C] | 2.29 |
| KVVEAHKIVLCMVSHVFMLLFNVK [A12M] | 2.2 |
| KVVEAHKIVLCDVSHVFMLLFNVK [A12D] | 3.75 |
| KVVEAHKIVLCLVSHVFMLLFNVK [A12L] | 3.63 |
| KVVEAHKIVLCSVSHVFMLLFNVK [A12S] | 2.78 |
| KVVEAHKIVLCGVSHVFMLLFNVK [A12G] | 2.92 |
| KVVEAHKIVLCPVSHVFMLLFNVK [A12P] | 2.73 |
| KVVEAHKIVLCQVSHVFMLLFNVK [A12Q] | 2.37 |
| KVVEAHKIVLCTVSHVFMLLFNVK [A12T] | 1.6 |
| KVVEAHKIVLWAVSHVFMLLFNVK [C11W] | 2.66 |
| KVVEAHKIVLKAVSHVFMLLFNVK [C11K] | 1.75 |
| KVVEAHKIVLGAVSHVFMLLFNVK [C11G] | 2.26 |
| KVVEAHKIVLEAVSHVFMLLFNVK [C11E] | 1.86 |
| KVVEAHKIVLLAVSHVFMLLFNVK [C11L] | 2.24 |
| KVVEAHKIVLAAVSHVFMLLFNVK [C11A] | 2.85 |
| KVVEAHKIVLTAVSHVFMLLFNVK [C11T] | 1.99 |
| KVVEAHKIVLQAVSHVFMLLFNVK [C11Q] | 2.37 |

| Variant | protein stability index |
| --- | --- |
| KVVEAHKIVLDAVSHVFMLLFNVK [C11D] | 2.13 |
| KVVEAHKIVLCAVSHVFMLLFNVC [K24C] | 2.8 |
| KVVEAHKIVLCAVSHVFMLLFNVN [K24N] | 4.04 |
| KVVEAHKIVLCAVSHVFMLLFNVE [K24E] | 3.19 |
| KVVEAHKIVLCAVSHVFMLLFNVH [K24H] | 1.55 |
| KVVEAHKIVLCAVSHVFMLLFNVM [K24M] | 2.27 |
| KVVEARKIVLCAVSHVFMLLFNVK [H6R] | 3.29 |
| KVVEAIKIVLCAVSHVFMLLFNVK [H6I] | 1.85 |
| KVVEAFKIVLCAVSHVFMLLFNVK [H6F] | 2.13 |
| KVVEAGKIVLCAVSHVFMLLFNVK [H6G] | 1.84 |
| KVVEAKKIVLCAVSHVFMLLFNVK [H6K] | 2.65 |
| KVVEALKIVLCAVSHVFMLLFNVK [H6L] | 1.75 |
| KVVEAEKIVLCAVSHVFMLLFNVK [H6E] | 2.21 |
| KVVEATKIVLCAVSHVFMLLFNVK [H6T] | 1.79 |
| KVVEAHKMVLCAVSHVFMLLFNVK [I8M] | 3.3 |
| KVVEAHKYVLCAVSHVFMLLFNVK [I8Y] | 1.88 |
| KVVEAHKEVLCAVSHVFMLLFNVK [I8E] | 1.98 |
| KVVEAHKGVLCAVSHVFMLLFNVK [I8G] | 2.84 |
| KVVEAHKTVLCAVSHVFMLLFNVK [I8T] | 2.93 |
| KVVEAHKFVLCAVSHVFMLLFNVK [I8F] | 2.48 |
| KVVEAHKAVLCAVSHVFMLLFNVK [I8A] | 2.45 |
| KVVEAHKIVLCAHSHVFMLLFNVK [V13H] | 2.36 |
| KVVEAHKIVLCALSHVFMLLFNVK [V13L] | 2.12 |
| KVVEAHKIVLCATSHVFMLLFNVK [V13T] | 4.13 |

| Variant | protein stability index |
| --- | --- |
| KVVEAHKIVLCAKSHVFMLLFNVK [V13K] | 3.18 |
| KVVEAHKIVLCANSHVFMLLFNVK [V13N] | 2.33 |
| KVVEAHKIVLCAESHVFMLLFNVK [V13E] | 2.5 |
| KVVEAHKIVLCAPSHVFMLLFNVK [V13P] | 2.59 |
| KVNEAHKIVLCAVSHVFMLLFNVK [V3N] | 3.87 |
| KVFEAHKIVLCAVSHVFMLLFNVK [V3F] | 3.62 |
| KVIEAHKIVLCAVSHVFMLLFNVK [V3I] | 3.11 |
| KVDEAHKIVLCAVSHVFMLLFNVK [V3D] | 2.2 |
| KVYEAHKIVLCAVSHVFMLLFNVK [V3Y] | 2.53 |
| KVQEAHKIVLCAVSHVFMLLFNVK [V3Q] | 3.48 |
| KVREAHKIVLCAVSHVFMLLFNVK [V3R] | 2.02 |
| KVPEAHKIVLCAVSHVFMLLFNVK [V3P] | 3.35 |
| KVGEAHKIVLCAVSHVFMLLFNVK [V3G] | 2.38 |
| KVVEAHKIVLCAVSHVFMLLFEVK [N22E] | 2.47 |
| KVVEAHKIVLCAVSHVFMLLFAVK [N22A] | 2.86 |
| KVVEAHKIVLCAVSHVFMLLFGVK [N22G] | 2.71 |
| KVVEAHKIVLCAVSHVFMLLFIVK [N22I] | 3.19 |
| KVVEAHKIVLCAVSHVFMLLFQVK [N22Q] | 2.84 |
| KVVEAHKIVLCAVSHVFMLLFMVK [N22M] | 3.79 |
| KVVEAHKIVLCAVSHVFMLLFSVK [N22S] | 2.72 |
| KVVEAHKIVLCAVSHVFMLLFFVK [N22F] | 2.43 |
| KVVEAHKIVLCAVSHVFMLLFPVK [N22P] | 2.1 |
| KVVEAHKIVLCAVSHVFMWLFNVK [L19W] | 3.11 |
| KVVEAHKIVLCAVSHVFMPLFNVK [L19P] | 2.31 |

| Variant | protein stability index |
| --- | --- |
| KVVEAHKIVLCAVSHVFMCLFNVK [L19C] | 2.24 |
| KVVEAHKIVLCAVSHVFMILFNVK [L19I] | 3.67 |
| KVVEAHKIVLCAVSHVFMELFNVK [L19E] | 2.2 |
| KVVEAHKIVLCAVSHVFMRLFNVK [L19R] | 3.74 |
| KVVEAHKIVLCAVFHVFMLLFNVK [S14F] | 2.8 |
| KVVEAHKIVLCAVMHVFMLLFNVK [S14M] | 3.96 |
| KVVEAHKIVLCAVTHVFMLLFNVK [S14T] | 2.95 |
| KVVEAHKIVLCAVNHVFMLLFNVK [S14N] | 3.59 |
| KVVEAHKIVLCAVDHVFMLLFNVK [S14D] | 2.17 |
| KVVEAHKIVLCAVSTVFMLLFNVK [H15T] | 1.92 |
| KVVEAHKIVLCAVSCVFMLLFNVK [H15C] | 3.87 |
| KVVEAHKIVLCAVSSVFMLLFNVK [H15S] | 2.82 |
| KVVEAHKIVLCAVSVVFMLLFNVK [H15V] | 3.1 |
| KVVEAHKIVLCAVSKVFMLLFNVK [H15K] | 2.17 |
| KVVEAHKIVLCAVSDVFMLLFNVK [H15D] | 3.14 |
| KVVEAHKIVLCAVSHVFMLLFNTK [V23T] | 3.33 |
| KVVEAHKIVLCAVSHVFMLLFNFK [V23F] | 2.99 |
| KVVEAHKIVLCAVSHVFMLLFNYK [V23Y] | 3.03 |
| KVVEAHKIVLCAVSHVFMLLFNWK [V23W] | 2.5 |
| KVVEAHKIVLCAVSHVFMLLFNIK [V23I] | 2.57 |
| KVVEAHKIVLCAVSHVFMLLFNMK [V23M] | 1.75 |
| KVVEAHKIVLCAVSHVFMLLFNQK [V23Q] | 1.91 |
